Data on seven molecules can be found in US20220396819A1, “METHOD FOR PRODUCING PEPTIDE HAVING PHYSIOLOGICAL ACTIVITY, AND PEPTIDE COMPRISING SHORT LINKER” (priority 2019, published 2022).

Where two headings read alike, the source gives them in different places. Positions of bridges follow the written chain, without caps; N, C: chain ends. No end group written: not given here.

As usually defined, the EC50 is the concentration giving half of the maximal effect.

For one assay, the system named is HEL cells. Put plainly: Thrombopoietin-like activity, tyrosine phosphorylation levels in HEL cells (dot blot). Conditions: culture supernatant diluted, 20 minutes, rhTPO 10 to 100 ng/mL, FIG. 41. Format: cell-based, human. How it is done:
The thrombopoietin-like activity of the TPO-PAS dimer peptide was evaluated by quantification of tyrosine phosphorylation levels in HEL cells, a human leukemia-derived blood cell line. 200,000 HEL cells were cultured in RPMI 1640 medium without FBS (Thermo Fisher Scientific) for 24 hours and starved. The cells were stimulated for 20 minutes in RPMI 1640 medium supplemented with 10 to 100 ng/mL recombinant human TPO (rhTPO, Peprotech) or a culture supernatant containing AET-TPO1-PAS8, TPO2-PAS8, or AET-TPO2-PAS8 at a predetermined dilution factor. As a negative control, PBS (Mock group) or a supernatant expressing no peptide (Empty group) by using an empty vector was added, and stimulation was performed for 20 minutes. After removing the medium and washing the cells once with PBS, the cells were lysed by adding 100 μL of Lysis buffer 17 (R&D Systems) supplemented with Protease inhibitor cocktail (Nacalai Tesque). The lysate solution was centrifuged at 14,000 G for 5 minutes to obtain the supernatant as lysate.
APVDF membrane (Immobilon-P membrane 0.45 m, Merck) was treated with methanol for 1 minute and then with ultrapure water for 5 minutes for hydrophilic treatment. The PVDF membrane was dried, and each cell lysate solution was spotted with a 1 μL pipette and dried. The PVDF membrane was blocked with PVDF Blocking Reagent for Can Get Signal (NOF) at room temperature for 1 hour, and then Can Get Signal Solution 2 (NOF), supplemented with anti-pY antibody-[…] conjugate (Cell Signaling Technology) at 1:5000, was added, followed by an antibody reaction at 4° C. for 24 hours. The membrane was washed 3 times with TBST buffer, Luminata Crescendo Western HRP Substrate (Merck) was added, and a chemiluminescence reaction was carried out. Chemiluminescence was detected using Amersham Imager 600 (GE Healthcare). The luminescence intensity of the detected dots was quantified by ImageJ.

Assay [1] has as its target T1, EpoR (UniProt P19235 25-508, limits assumed).
T1 sequence (looked up): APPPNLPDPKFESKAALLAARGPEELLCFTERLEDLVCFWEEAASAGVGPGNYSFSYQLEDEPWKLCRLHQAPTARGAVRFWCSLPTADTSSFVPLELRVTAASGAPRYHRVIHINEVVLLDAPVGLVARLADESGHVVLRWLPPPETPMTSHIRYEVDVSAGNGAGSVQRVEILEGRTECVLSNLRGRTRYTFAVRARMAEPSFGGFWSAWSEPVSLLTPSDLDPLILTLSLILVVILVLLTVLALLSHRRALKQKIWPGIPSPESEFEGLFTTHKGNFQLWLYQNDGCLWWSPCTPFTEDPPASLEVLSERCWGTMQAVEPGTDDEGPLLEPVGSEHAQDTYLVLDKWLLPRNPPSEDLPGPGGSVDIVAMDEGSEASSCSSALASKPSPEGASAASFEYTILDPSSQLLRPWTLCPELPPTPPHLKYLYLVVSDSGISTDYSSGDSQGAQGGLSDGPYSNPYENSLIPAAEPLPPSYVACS
Kind of assay: cell-based or functional assay.

In assay [2] the target is T1, EpoR. Put plainly: cell-based or functional assay. The source holds these as a separate data set.

As to “AETGGCADGPTLREWISFCGGAAPAAPAPGGCADGPTLREWISFCGG (disulfide 6-19, 32-45) [AET-TPO2-PAS8]”, the “increase in tyrosine phosphorylation levels compared with rhTPO” value in the assay with HEL cells is “equal to or higher than that of rhTPO”.
For the molecule “AETIEGPTLRQWLAARAAAPAAPAPIEGPTLRQWLAARA (AET-TPO1-PAS8)”, the “increase in tyrosine phosphorylation levels compared with rhTPO” value with HEL cells is listed as “equal to or higher than that of rhTPO”.

B1: AET-EPO-PAS22-PAS200 (peptide)
peptide: AETGGLYACHMGPMTWVCQPLRGAAPAAPAPAAPAAPAPAAPAAPGGLYACHMGPMTWVCQPLRGAAPAAPAPAAPAAPAPAAPAAPAPAAPAAPAPAAPAAPAPAAPAAPAPAAPAAPAPAAPAAPAPAAPAAPAPAAPAAPAPAAPAAPAPAAPAAPAPAAPAAPAPAAPAAPAPAAPAAPAPAAPAAPAPAAPAAPAPAAPAAPAPAAPAAPAPAAPAAPAPAAPAAPAPAAPAAPAPAAPAAPAPAAPAAPAPAAPAAPAP
modifications: two disulfide bonds in the molecule
In the case of B1, in the assay with EpoR [1], the midpoint of the response, the EC50, lay at 0.85 ng/mL.
Turning to GGLYACHMGPMTWVCQPLRG [monomer peptide EMP35], in the assay with EpoR [2], the midpoint of the response, the EC50, lay at 110 ng/mL.

B2: AET-EPO-PAS22 (peptide)
peptide: AETGGLYACHMGPMTWVCQPLRGAAPAAPAPAAPAAPAPAAPAAPGGLYACHMGPMTWVCQPLRG
modifications: disulfide 9-18, 51-60
Take B2: the concentration giving a half-maximal response (EC50) in the assay with EpoR [2] came to 0.34 ng/mL. This EC50 lies about 320-fold lower than the previous one.

B3: AET-EPO-PAS22-PAS600 (peptide)
peptide: AETGGLYACHMGPMTWVCQPLRGAAPAAPAPAAPAAPAPAAPAAPGGLYACHMGPMTWVCQPLRGAAPAAPAPAAPAAPAPAAPAAPAPAAPAAPAPAAPAAPAPAAPAAPAPAAPAAPAPAAPAAPAPAAPAAPAPAAPAAPAPAAPAAPAPAAPAAPAPAAPAAPAPAAPAAPAPAAPAAPAPAAPAAPAPAAPAAPAPAAPAAPAPAAPAAPAPAAPAAPAPAAPAAPAPAAPAAPAPAAPAAPAPAAPAAPAPAAPAAPAPAAPAAPAPAAPAAPAPAAPAAPAPAAPAAPAPAAPAAPAPAAPAAPAPAAPAAPAPAAPAAPAPAAPAAPAPAAPAAPAPAAPAAPAPAAPAAPAPAAPAAPAPAAPAAPAPAAPAAPAPAAPAAPAPAAPAAPAPAAPAAPAPAAPAAPAPAAPAAPAPAAPAAPAPAAPAAPAPAAPAAPAPAAPAAPAPAAPAAPAPAAPAAPAPAAPAAPAPAAPAAPAPAAPAAPAPAAPAAPAPAAPAAPAPAAPAAPAPAAPAAPAPAAPAAPAPAAPAAPAPAAPAAPAPAAPAAPAPAAPAAPAPAAPAAPAPAAPAAPAPAAPAAPAPAAPAAPAPAAPAAPAPAAPAAPAPAAPAAPAPAAPAAPAPAAPAAPAPAAPAAPAPAAPAAPAPAAPAAPAP
modifications: two disulfide bonds in the molecule
For the molecule B3, in the assay with EpoR [1], it took 0.32 ng/mL to reach a half-maximal effect (EC50).

B4: AET-EPO-PAS8 (peptide)
peptide: AETGGLYACHMGPMTWVCQPLRGAAPAAPAPGGLYACHMGPMTWVCQPLRG
modifications: disulfide 9-18, 37-46
Turning to B4, a half-maximal response with EpoR [2] (EC50) required 0.19 ng/mL.
